According to PMC11703740, “Disparate molecular mechanisms in cardiac ryanodine receptor channelopathies” (Frontiers in Molecular Biosciences, 2024):
Numbering of substitutions follows the chain as printed. Names may count otherwise.

B1: NT^WT (human RyR2 residues 1-906, cMyc-tagged) (domain or fragment, UniProt Q92736 1-906, looked up)
chain: MADGGEGEDEIQFLRTDDEVVLQCTATIHKEQQKLCLAAEGFGNRLCFLESTSNSKNVPPDLSICTFVLEQSLSVRALQEMLANTVEKSEGQVDVEKWKFMMKTAQGGGHRTLLYGHAILLRHSYSGMYLCCLSTSRSSTDKLAFDVGLQEDTTGEACWWTIHPASKQRSEGEKVRVGDDLILVSVSSERYLHLSYGNGSLHVDAAFQQTLWSVAPISSGSEAAQGYLIGGDVLRLLHGHMDECLTVPSGEHGEEQRRTVHYEGGAVSVHARSLWRLETLRVAWSGSHIRWGQPFRLRHVTTGKYLSLMEDKNLLLMDKEKADVKSTAFTFRSSKEKLDVGVRKEVDGMGTSEIKYGDSVCYIQHVDTGLWLTYQSVDVKSVRMGSIQRKAIMHHEGHMDDGISLSRSQHEESRTARVIRSTVFLFNRFIRGLDALSKKAKASTVDLPIESVSLSLQDLIGYFHPPDEHLEHEDKQNRLRALKNRQNLFQEEGMINLVLECIDRLHVYSSAAHFADVAGREAGESWKSILNSLYELLAALIRGNRKNCAQFSGSLDWLISRLERLEASSGILEVLHCVLVESPEALNIIKEGHIKSIISLLDKHGRNHKVLDVLCSLCVCHGVAVRSNQHLICDNLLPGRDLLLQTRLVNHVSSMRPNIFLGVSEGSAQYKKWYYELMVDHTEPFVTAEATHLRVGWASTEGYSPYPGGGEEWGGNGVGDDLFSYGFDGLHLWSGCIARTVSSPNQHLLRTDDVISCCLDLSAPSISFRINGQPVQGMFENFNIDGLFFPVVSFSAGIKVRFLLGGRHGEFKFLPPPGYAPCYEAVLPKEKLKVEHSREYKQERTYTRDLLGPTVSLTQAAFTPIPVDTSQIVLPPHLERIREKLAENIHELWVMNKIELGWQYGP
notes: cardiac ryanodine receptor (RyR2), human, N-terminus residues 1-906; also called wild-type RyR2 N-terminus; RyR2-NT; source: HEK293, transiently transfected, in cell homogenate (cross-linking) or CHAPS-solubilized lysate (co-IP)
B2: NT^G357S (human RyR2 residues 1-906, cMyc-tagged, G357S) (domain or fragment, UniProt Q92736 1-906, looked up)
chain: B1 chain with G357S
notes: cardiac ryanodine receptor (RyR2), human, N-terminus residues 1-906 with the CPVT mutation G357S; Mutation made by site-directed mutagenesis in the NT^WT plasmid; a variant reported in patients; also called type II^intra variant; source: HEK293, transiently transfected, in cell homogenate (cross-linking) or CHAPS-solubilized lysate (co-IP)
B3: NT^A77T (human RyR2 residues 1-906, cMyc-tagged, A77T) (domain or fragment, UniProt Q92736 1-906, looked up)
chain: B1 chain with A77T
notes: cardiac ryanodine receptor (RyR2), human, N-terminus residues 1-906 with the patient mutation A77T; Mutation made by site-directed mutagenesis in the NT^WT plasmid; a variant reported in patients; also called type II^inter variant; source: HEK293, transiently transfected, in cell homogenate (cross-linking) or CHAPS-solubilized lysate (co-IP)
B4: NT^R169L (human RyR2 residues 1-906, cMyc-tagged, R169L) (domain or fragment, UniProt Q92736 1-906, looked up)
chain: B1 chain with R169L
notes: cardiac ryanodine receptor (RyR2), human, N-terminus residues 1-906 with the CPVT mutation R169L; Mutation made by site-directed mutagenesis in the NT^WT plasmid; a variant reported in patients; also called type I variant; source: HEK293, transiently transfected, in cell homogenate (cross-linking) or CHAPS-solubilized lysate (co-IP)

Target: the molecule itself
Test: cross-linking; HEK293 cell homogenate supernatant (20 ug; 5 mM HEPES, 0.3 M sucrose, 10 mM DTT, pH 7.4) with glutaraldehyde (0.0025% or 260 umol/L) for 0-60 min; SDS-PAGE and Western blot with Ab^cMyc; monomer and tetramer bands by densitometry

Row | Protein | stoichiometry N
1 | B1 | 4
2 | B2 | 4
3 | B3 | 4
4 | B4 | 4
